Entries after “also recorded” stand apart in the source; their conditions may differ.
Experiments:
[1] = test system: pancreatic islets and β-cells; test: Follow-up of healthy offspring with gestational exposure to anti-serpinB13 mAb; assay type: in vivo, mouse; conditions: for β-cell mass per animal (islet mass): offspring
Method: (§1) The control mouse mAb (clone TIB92) was from ATCC (Manassas, VA, USA). The recombinant human control Ab (cat. No 403502) was from BioLegend (San Diego, CA). In most of the experiments, anti-serpinB13 mAb (clone B29) or control mouse mAb was injected i.p. into pregnant female mice at 50 μg for four consecutive days, starting at gestational day E10.5 (total dose of 200 μg). In the lineage tracing experiments in adult mice, B29 was injected i.p. for 7 days at 100 μg/injection during the first week after STZ treatment (total dose of 700 μg).
Preparation of the islets and single islet-cell suspensions. The adult pancreases were subjected to digestion with collagenase P and passed through the 100-μm strainers to separate the islets from debris. The blindly digested pancreatic samples were manually counted for the number of pancreatic islets under a dissecting microscope with a warm halogen light from below. The islets were defined as any visible, distinct cluster of cells with smooth edges and light- to dark-brown glowing color and diameter greater than 100 μm. The hand-picked islets were then dispersed with CellStripper (cat. no. 25-056-CI; Corning, Corning, NY). The cells were fixed and permeabilized, using the Foxp3/Transcription Factor Staining Buffer Set to permit intracellular staining.
Calculation of the islet mass. In embryos, the β-cell mass was expressed as the percentage of the area of all pancreatic sections combined, that positively stained with anti-insulin antibody. To calculate β-cell mass in adult mice, the percentage insulin-positive area was multiplied by the pancreas weight expressed in milligrams.
Estimating the number of islets and islet cells. The islets were manually counted under a dissecting microscope. To estimate the number of α and β cells, the islet cells were dispersed, intracellularly stained with antibodies to […], respectively, and their counts measured by FACS.

[2] = test system: Ngn3+ endocrine progenitor cells; test: Ngn3+ cells in embryonic pancreas after antibody injection into pregnant mice; assay type: in vivo, mouse; conditions: for number of Ngn3+ cells in the embryonic pancreas: pregnant mice i.p. 50 μg daily E10.5 through E13.5, E16.5 and birth, vs control Ab
Method: as §1
Processing of pancreatic tissue for immunofluorescence microscopy. The pancreatic tissues were isolated and fixed either overnight (adult pancreases), or for one hour (embryonic pancreas explants), in 2% PFA (pH 7.4), followed by a two-step saturation process: first in a 30% sucrose solution in PBS and then in optimal cutting temperature (OCT) compound. After complete saturation, the tissues were imbedded in OCT using Cryomold and then snap frozen in an ethanol/dry ice bath. The OCT blocks were serially cut through the entire organ to obtain representative sections every 600 μm (6 to 8 sections per adult pancreas), 50 μm (12 to 14 sections per E16.5 embryonic pancreas), 35 μm (10 to 12 sections per E14.5 embryonic pancreas), or 15 μm (10 to 12 sections per E12.5 embryonic pancreas cultured for 1 to 3 days). For the embryonic linage tracing experiments, three largest sections were taken for the analysis. For all other experiments involving immunofluorescence microscopy, all obtained sections were analyzed.
The sections from the pancreases of embryos at age E14.5 and E16.5, and newborn pups (OP), were stained with anti-Ngn3 antibody to determine the total number of endocrine progenitors cells for all sections per explant combined (FIG. 9G, FIG. 17A). Alternatively, the sections representing the pancreases of embryos at age E12.5 (which are considerably smaller) were stained with both anti-Ngn3 and anti-CK19 antibodies to determine the fraction of CK19-positive area that was occupied by Ngn3− positive staining (FIGS. 9D, 10A, 10C, 12D, 12G, 12J and FIGS. 15A, 20B). The following formula was used to adjust for any differences in the pancreas size: (Ngn3^+ cell number/μm^2 of CK19^+ cells)×10^5.
Image analysis. […] To classify and quantify the images in unbiased fashion, we defined the following four classes for the analysis: Ngn3^+ cells, the clusters of cytokeratin 19^+ cells, the negatively stained areas, and background (e.g., the area outside of tissue sample). […] For the unbiased quantitative analysis of β-cells and islets in the whole pancreatic sections, Visiopharm Author module was trained to recognize insulin-positive β-cell clusters with diameter greater than 50 μm as well as negatively stained section area. […]

[3] = 8-week old offspring, prenatal exposure

B1: B29: mouse monoclonal antibody to serpin B13, clone B29; heavy chain SEQ ID NO:14, kappa light chain SEQ ID NO:16 (antibody, V domains shown)
VH: QIQLVQSGPELKKPGETVKISCKASGYTFTTYGMSWVKQAPGKGLKWMGWINTYSGMPTYADDFKGRFAFSLETSATTAYLQINNLKNEDTATYFCARPLLGLDYWGQGTTLTVSS
VL: DIVMTQTPLSLSVTIGQPASISCKSSQSLLHSDGKTFLNWFLQRPGQSPKLLIYLVSKLESGIPDRFSGSGSGTDFTLKISRVEVEDLGVYYCLQHTHFPLTFGAGTKLEIK
For B1, the “number of pancreatic islets” value [1, 3] was “significant increase”, the “total β-cell number” value [1, 3] was “significant increase” and the α-cell population [1, 3] was “significantly increased”. The “total pancreas and body weight” value ([1]; at birth and in adulthood, vs control group) was “remained the same”, the “β-cell mass per animal (islet mass)” value ([1]; prenatal exposure, listed as anti-serpinB13 antibody) was “increased” and the “β-cell mass per animal (islet mass)” value ([1]; prenatal exposure, listed as anti-serpinB13 mAb) was “significant increase”. The “β-cell mass per animal (islet mass)” value ([1]; prenatal exposure, listed as mAb) was “significant expansion”, the “fractions of pancreatic microscopic sections positively stained with anti-insulin antibody” value ([2]; E16.5 embryos exposed in vivo vs control Ab) was “significantly higher fractions” and the Ngn3 protein levels ([2]; Western blot, E16.5, pregnant mice i.p. 50 μg daily E10.5-E13.5) was “robust increase”. The “number of Ngn3+ cells in the embryonic pancreas” value [2] was “increased; also recorded: significant increase; also recorded: robust increase” and the “number of Ngn3+ cells in the embryonic pancreas” value ([2]; listed as mAb) was “robust increase”.

Source: patent US12441811B2, “Compositions and methods for treating serpin B13 disorders” (REGENTS OF THE UNIVERSITY OF MINNESOTA, priority 2019, dated 2025)
